Experimental data reported in patent US20120094909A1 (Bristol-Myers Squibb, published 2012).
“And” between values parts separate entries of the source, which are not always exact repeats. Equal entries are not always repeated. Where two headings read alike, the source gives them in different places. One block for each binder: values may come before it.

Assays:
[1] = biological target: T1, human PCSK9 (proprotein convertase subtilisin kexin type 9) (human, UniProt Q8NBP7 31-692); assay: PCSK9:ATI-972 FRET at 5 nM human PCSK9, competitor biotinylated ATI-972
T1 construct: immobilized directly (ProteOn), biotinylated (Octet) or in solution, according to the assay; also called hPCSK9; PCSK9-AF647 (labelled form)

murine serum albumin = biological target: T2, murine serum albumin (mouse, UniProt P07724 25-608); assay: SPR, captured albumin
T2 construct: also called MuSA; mouse serum albumin
Method: (§1) The kinetics of selected SABA clones purified from HTPP and/or midscaled material described in Examples 5A and 5B were determined by capturing the respective serum albumin (HSA/RhSA/MuSA) on the surface of a Biasensor CMS chip and flowing a concentration series of SABAs over both the reference flow cell and the captured albumins. In addition, binding to albumin was carried out under various pH conditions ranging from pH 5.5 to pH 7.4.

human serum albumin = biological target: T3, human serum albumin (human, UniProt P02768 25-609); assay: SPR (Biacore), albumin captured on chip, SABA in flow
T3 construct: also called HSA
Method: as §1

rhesus serum albumin = biological target: T4, rhesus serum albumin (rhesus, UniProt Q28522 17-600); assay: as above
T4 construct: also called RhSA
Method: as §1

[2] = biological target: T5, human PCSK9 (proprotein convertase subtilisin kexin type 9) (human, UniProt Q8NBP7 31-692); assay: BLI Octet Red, 37 C
T5 construct: Directly immobilized (SPR ProteOn), biotinylated (BLI), or in solution, depending on the assay; also called hPCSK9
Method: (§2) Tips were then immersed into a buffer-only well for observation of Adnectin dissociation. Experiments were performed in a temperature controlled environment at either 25 or 37° C., and the oscillation speed was set at 1500 rpm.
(§3) Binding interaction analysis was performed using proprietary software from Fortebio (Fortebio Data Analysis Software version 6.3.0.36). Global fits were performed for all samples, using a 1:1 binding model. The nature of these global fits constrained all values of concentration to a single pair of association and dissociation rates that were themselves constrained to each other. Affinities (KD), association and dissociation rates were averaged over the various loading levels used in the analysis.

[3] = biological target: T5, human PCSK9 (proprotein convertase …); assay: FRET, competitor EGFA peptide
Text: (§4) Table 11 summarizes the overall data from these three FRET assays.

cynomolgus monkey PCSK9 [4] = biological target: T6, cynomolgus monkey PCSK9 (cynomolgus monkey, UniProt A0A7N9D9N8 150-747); assay: FRET, competitor EGFA peptide
T6 construct: also called cyno PCSK9; cPCSK9
Text: as §4

[5] = biological target: T5, human PCSK9 (proprotein convertase …); assay: BLI, biotinylated hPCSK9 on sensor tips
[6] = biological target: T1, human PCSK9 (proprotein convertase …); assay: ITC, 37 C
[7] = biological target: T1, human PCSK9 (proprotein convertase …); assay: cell-based or functional assay
[8] = biological target: T1, human PCSK9 (proprotein convertase …); assay: cell-based or functional assay; remark: listed apart in the source
[9] = biological target: T1, human PCSK9 (proprotein convertase …); assay: PCSK9:EGFA FRET, competitor EGFA peptide
[10] = biological target: T5, human PCSK9 (proprotein convertase …); assay: SPR ProteOn, 25 C
Method: (§5) The binding characteristics were characterized by Surface Plasmon Resonance (SPR). […] This allowed kinetic determination in the absence of regeneration. […] Evaluation of the kinetic parameters was performed using the Langmuir interaction model and constant parameter fitting with the ProteOn Manager software.

[11] = biological target: T5, human PCSK9 (proprotein convertase …); assay: cell-based or functional assay; remark: listed apart in the source
[12] = biological target: T5, human PCSK9 (proprotein convertase …); assay: FRET, competitor ATI000972
Text: as §4

cynomolgus monkey PCSK9 [13] = biological target: cynomolgus monkey PCSK9 (cynomolgus monkey, UniProt A0A7N9D9N8 150-747); assay: FRET, competitor EGFA peptide
Text: as §4

[14] = biological target: T5, human PCSK9 (proprotein convertase …); assay: FRET direct binding, anti-his6 antibody
Text: as §4

[15] = biological target: T1, human PCSK9 (proprotein convertase …); assay: SPR (ProteOn), 25 C
[16] = biological target: T1, human PCSK9 (proprotein convertase …); assay: BLI (Octet Red), 37 C
Method: as §2, §3

Cynomolgus PCSK9 = biological target: T7, Cynomolgus PCSK9 (cynomolgus monkey, UniProt A0A7N9D9N8 150-747); assay: SPR (ProteOn), PCSK9 immobilized directly, 25 C
T7 construct: also called cyno PCSK9; cPCSK9
Method: as §5

[17] = biological target: T1, human PCSK9 (proprotein convertase …); assay: PCSK9:EGFA FRET at 5 nM PCSK9, competitor EGFA peptide
[18] = biological target: T5, human PCSK9 (proprotein convertase …); assay: SPR ProteOn, PCSK9 immobilized, 25 C
Method: as §5

binding result (murine serum albumin): no binding
B2: SABA2.1 (designed binder)
chain: MGVSDVPRDLEVVAATPTSLLISWPKYDKTGHYYRITYGETGGNSPVQEFTVPTRQTTATISGLKPGVDYTITVYAVSKDDYYPHEHRPISINYRTEIDKPSQHHHHHH

Kd (human serum albumin): 863 nM
koff (human serum albumin): 0.0682 s⁻¹
Kd (rhesus serum albumin): 431 nM
koff (rhesus serum albumin): 0.0337 s⁻¹
B3: SABA3.1 (designed binder)
chain: MGVSDVPRDLEVVAATPTSLLISWSNDGPGLSYYRITYGETGGNSPVQEFTVPSSQTTATISGLKPGVDYTITVYAVSYYTKKAYSAGPISINYRTEIDKPSQHHHHHH
notes: also called clone 1245H07

binding result (murine serum albumin): no binding
B4: SABA3.1 (designed binder)
chain: MGVSDVPRDLEVVAATPTSLLISWSNDGPGLSYYRITYGETGGNSPVQEFTVPSSQTTATISGLKPGVDYTITVYAVSYYTKKAYSAGPISINYRTEIDKPSQHHHHHH
notes: also called clone 1245H07

binding result (murine serum albumin): no binding
B7: SABA1.1 (designed binder)
chain: MGVSDVPRDLEVVAATPTSLLISWHSYYEQNSYYRITYGETGGNSPVQEFTVPYSQTTATISGLKPGVDYTITVYAVYGSKYYYPISINYRTEIDKPSQHHHHHH
notes: core 1 10Fn3 with His6; also called clone 1318H04

PCSK9-induced LDLR depletion in HepG2 cells, EC50 [7]: 8 nM
inhibition of PCSK9-AF647 intracellular fluorescence in HepG2 cells, EC50 [7]: 10 nM
EC50 [17]: 1.9 nM
B14: ATI001174 (designed binder)
chain: MGVSDVPRDLEVVAATPTSLLISWVPPSDDYGYYRITYGETGGNSPVQEFTVPIGKGTATISGLKPGVDYTITVYAVEFPWPHAGYYHRPISINYRTEIEKPCQ
modifications: PEG on the cysteine of the C-terminal tail (EIEKPCQ)
notes: also called ATI-1174; ATI1174

binding result (murine serum albumin): no binding
B15: SABA4.1 (designed binder)
chain: MGVSDVPRDLEMVAATPTSLLISWEDDSYYSRYYRITYGETGGNSPVQEFTVPSDLYTATISGLKPGVDYTITVYAVTYDVTDLIMHEPISINYRTEIDKPSQHHHHHH

The remaining lines, values behind:

B1: ATI001114 (designed binder)
chain: MGVSDVPRDLEVVAATPTSLLISWVPPSDDYGYYRITYGETGGNSPVQEFTVPIGKGTATISGLKPGVDYTITVYAVEFPWPHAGYYHRPISINYRTGSGCHHHHHH
modifications: 40 kDa two-branched PEG on the cysteine of the C-terminal tail (GSGC)
notes: also called ATI1114
EC50 [1]: 0.8 nM

B5: 2382D05 (designed binder)
chain: MGVSDVPRDLEVVAATPTSLLISWDAPADGGYGYYRITYGETGGNSPVQEFTVPVSKGTATISGLKPGVDYTITVYAVEFDFPGAGYYHRPISINYRTEIDKPSQHHHHHH
notes: Anti-PCSK9 Adnectin, His6-tagged; Same entry as 2451B06
Kd [2]: 0.314 nM
EC50 [3]: 2.6 nM
EC50 (cynomolgus monkey PCSK9 [4]): 57.8 nM
Kd [5]: 0.314 nM
koff [5]: 0.000157 s⁻¹
kon [5]: 505000 M⁻¹ s⁻¹

B6: 2451B06 (designed binder)
chain: MGVSDVPRDLEVVAATPTSLLISWDAPADGGYGYYRITYGETGGNSPVQEFTVPVSKGTATISGLKPGVDYTITVYAVEFDFPGAGYYHRPISINYRTEIDKPSQHHHHHH
notes: Anti-PCSK9 Adnectin, His6-tagged; also called 2451B06 (equivalent to 2382D05)
EC50 [3]: 4.5 nM
EC50 (cynomolgus monkey PCSK9 [4]): 57.8 nM

B8: 1784F03 (designed binder)
chain: MGVSDVPRDLEVVAATPTSLLISWRPPIHAYGYYRITYGETGGNSPVQEFTVPIVEGTATISGLKPGVDYTITVYAVEYTFKHSGYYHRPISINYRTEIDKPSQHHHHHH
Kd [6]: 3.8 nM
DiI-LDL uptake in HepG2 cells, EC50 [7]: 210 nM
EC50 (nM), PCSK9-induced LDLR depletion from HepG2 cell surface [7]: 16 nM
percentage of PCSK9 inhibition at 75 nM [7]: 150%
LDLR Depletion (% inhibition at 75 nM) [8]: 150%
LDLR Depletion EC50 [8]: 26 nM
EC50 [9]: 2 nM

B9: 1923B02 (designed binder)
chain: MGVSDVPRDLEVVAATPTSLLISWTPPPKGYGYYRITYGETGGNSPVQEFTVPVGEGTATISGLKPGVDYTITVYAVEYTYNGAGYYHRPISINYRTEIDKPSQHHHHHH
notes: Anti-PCSK9 Adnectin, His6-tagged
Kd [10]: 0.17 nM
LDLR Depletion EC50 [11]: 23 nM
IC50 [12]: 3.2 nM
EC50 [3]: 2.3 nM
IC50 [3]: 2.3 nM
EC50 (cynomolgus monkey PCSK9 [13]): 53.5 nM
EC50 [14]: 3.2 nM

B10: 2013E01 (designed binder)
chain: MGVSDVPRDLEVVAATPTSLLISWVPPSDDYGYYRITYGETGGNSPVQEFTVPIGKGTATISGLKPGVDYTITVYAVEFPWPHAGYYHRPISINYRTEIDKPSQHHHHHH
notes: unmodified (not PEGylated) Adnectin; also called ATI001081
DiI-LDL uptake in HepG2 cells, EC50 [7]: 160 nM
EC50 (nM), PCSK9-induced LDLR depletion from HepG2 cell surface [7]: 12.4 nM
PCSK9-induced LDLR depletion in HepG2 cells, EC50 [7]: 9 nM
percentage of PCSK9 inhibition at 75 nM [7]: 152%
Kd [15]: 0.29 nM
Kd [16]: 1.51 nM
LDLR Depletion (% inhibition at 75 nM) [8]: 166%
LDLR Depletion EC50 [8]: 10 nM
EC50 [9]: 1.6 nM
Kd (Cynomolgus PCSK9): 8 nM
EC50 [17]: 3.7 nM
EC50 [1]: 2.8 nM

B11: 1813E02 (designed binder)
chain: MGVSDVPRDLEVVAATPTSLLISWSPPANGYGYYRITYGETGGNSPVQEFTVPVGRGTATISGLKPGVDYTITVYAVEYTYKGSGYYHRPISINYRTEIDKPSQHHHHHH
Kd [6]: < 2 nM
LDLR Depletion EC50 [8]: 16 nM
EC50 [9]: 1.3 nM

B12: 2012A04 (designed binder)
chain: MGVSDVPRDLEVVAATPTSLLISWRPPSNGHGYYRITYGETGGNSPVQEFTVPVNEGTATISGLKPGVDYTITVYAVEFPFKWSGYYHRPISINYRTEIDKPSQHHHHHH
DiI-LDL uptake in HepG2 cells, EC50 [7]: 130 nM
EC50 (nM), PCSK9-induced LDLR depletion from HepG2 cell surface [7]: 7.78 nM
percentage of PCSK9 inhibition at 75 nM [7]: 190%
Kd [15]: 0.25 nM
LDLR Depletion (% inhibition at 75 nM) [8]: 144%
LDLR Depletion EC50 [8]: 12 nM
EC50 [9]: 2.1 nM
Kd (Cynomolgus PCSK9): 24 nM

B13: 1459D05 (designed binder)
chain: MGVSDVPRDLEVVAATPTSLLISWPPPSHGYGYYRITYGETGGNSPVQEFTVPPGKGTATISGLKPGVDYTITVYAVEYPYKHSGYYHRPISINYRTEIDKPSQHHHHHH
notes: also called ATI000891; ATI-891
Kd [10]: 1.58 nM
Kd [2]: 14.4 nM
LDLR Depletion EC50 [11]: > 200 nM
IC50 [12]: 14 nM
EC50 [3]: 5.8 nM
IC50 [3]: 4 nM
EC50 (cynomolgus monkey PCSK9 [13]): > 1000 nM
IC50 (cynomolgus monkey PCSK9 [13]): 2300 nM
Kd [18]: 1.58 nM
koff [18]: 0.00018 s⁻¹
kon [18]: 113000 M⁻¹ s⁻¹
kon [5]: 149000 M⁻¹ s⁻¹ and 108000 M⁻¹ s⁻¹
EC50 [14]: 3.9 nM
